Assay results published in US8709981B2, “Isolated Australian coral reef fluorescent proteins and cell-based kinase or phosphatase platforms for cancer drug development” (priority 2009, dated 2014).

B1: PhosFluor: fluorescent protein having the amino acid sequence set forth in SEQ ID NO: 10, isolated from Scleractinia (protein)
chain: MSAHIKPNMKIKLRMEGDVNGHPFVITGEGSGKPYEGTHAIDLKVKEGGPLPFAYDILTAAFQYGNRAFTKYPADIPDYFKQSFPDGYCWERSMVFEDQGICVVKSVISLDKKEPDCFNYDIRFYGVNFPATGPVMKKKTVKWEPSTQTMYERDGVLVGDVNMALLLEGGGHHRCDFKSTYRAKGVVLNMPGNHYVDHRIEIIHHDKGYNSVTVHESAEARHCSLPSKAK
modifications: Scleractinia sp
B2: SEQ ID NO: 24: disclosed fluorescent polypeptide having the amino acid sequence set forth in SEQ ID NO: 24 (protein, listed as Lobophyllia hemprichii)
chain: MNVIKTDMKMKLRMVGAVNGHKFEIAGEGKGKPFEGKQTMNLEVLVGGPLPFAFDILTTVFDYGNRVFVKYPRDIADYFKQSFPEGFSWERSMAYEDGGICLATNNITLMKGDCFLYEIRFDGVNFPANSPVLQKKTV

Experiments:
[1] = Fluorescence intensity at different pH (Tris buffer); type: physicochemical; settings: from pH 6.3 to pH 8.5
Description: A panel of fluorescent proteins was subjected to different pH conditions.

protein kinases = assay: Fluorescence intensity of recombinant protein incubated with protein kinases; type: biochemical
Description: (§3) B. Equal quantities of the recombinant PhosFluor or eGFP were subjected to phosphorylation by the indicated protein kinases or to dephosphorylation with alkaline phosphatase (Alk Phos). Fluorescence intensity (representing the change in emission of a part of the emission spectrum compared to the value at 0 hours) was measured over time during the reaction.
(§4) To determine if the fluorescence of PhosFluor could be modulated by phosphorylation, recombinant PhosFluor was incubated with different protein kinases and fluorescence was monitored (FIG. 9B).

[2] = tested on: PKA, PKC, MAPK, cdc2, Akt1, Src; assay: Western blot / SDS-PAGE analysis of phosphorylation; type: biochemical
Description: Equal quantities of PhosFluor or eGFP incubated with either PKC or Src for the indicated times (in hours) were resolved on 10% SDS-PAGE gels and immunoblotted to antibodies that reveal total protein (a polyhistidine monoclonal antibody) or phospho-tyrosine. M designates the position of the monomeric form of fluorescent protein while P designates the position of phosphorylated forms of the protein that have undergone a motility shift due to increased negative charge.
Phosphorylation is known to increase the negative charge on proteins, which commonly results in an upward shift in the apparent molecular weight of the protein when resolved by SDS-PAGE (sodium dodecyl sulfate-polyacrylamide gel electrophoresis).

[3] = tested on: protein kinases (PKA, PKC, Akt1, CamKII, MAPK); assay: Excitation and emission spectra after phosphorylation; type: biochemical
Description: FIG. 11 discloses that phosphorylation of PhosFluor alters its spectral properties. The excitation and emission spectra of PhosFluor and eGFP are depicted under control conditions (no kinase) and after phosphorylation by the indicated kinases. The excitation and emission spectra for eGFP are all superimposed under a single curve, while phosphorylation of PhosFluor alters both spectra compared to control conditions.
The excitation and emission spectra of PhosFluor were also obtained under control conditions and when phosphorylated (FIG. 10A). […] A marked shift in the emission spectrum of PhosFluor was observed when this molecule was incubated with PKA, PKC or Akt1 (FIG. 10B). […] These observations are highly significant because changes in the emission spectrum permits ratiometric measurements to be carried out, a highly robust method for quantitating spectral change in a fluorophore. Moreover, the effects reported here were carried out on the unmodified native PhosFluor protein. Enhanced effects would be expected if this protein is optimized for phosphorylation and/or expression as disclosed herein.

alkaline phosphatase = settings: incubated with alkaline phosphatase
Description: as §3, §4

[4] = Fluorescence correlation spectroscopy (FCS) compared to eGFP; type: physicochemical
Description: (§1) The fluorescence emission of a disclosed fluorescent polypeptide having the amino acid sequence set forth in SEQ ID NO: 24 was compared to eGFP. eGFP is one of the brightest fluorescent proteins created to date. Both the disclosed fluorescent polypeptide having the amino acid sequence set forth in SEQ ID NO: 24 and eGFP were cloned into a modified pET-HT vector with a TEV-cleavable His-tag, expressed in BL21-DE3 E. coli, and purified via Ni-NTA resin. The concentration of each sample was normalized by the intensity of the respective absorption spectrum at 480 nm.
(§2) Fluorescence correlation spectroscopy (FCS) measurements (not shown) also indicated the protein having the sequence set forth in SEQ ID NO: 24 is monomeric and about 1.4 times as bright as eGFP. Additionally, as FIG. 6 clearly indicates, the peak emission intensity of the disclosed fluorescent polypeptide having the amino acid sequence set forth in SEQ ID NO: 24 is about 50% greater than that of eGFP.

[5] = Fluorescence emission spectrum compared to eGFP; type: physicochemical; settings: samples normalized by absorption at 480 nm
Description: as §1, §2

Molecule	increase in brightness [1] [%]	fluorescence intensity when incubated with cdc2 and MAPK (protein kinases; cdc2 and MAPK, data not shown)	fluorescence intensity in the absence of added protein kinase (protein kinases; no added protein kinase)	fluorescence intensity when treated with various protein kinases (protein kinases; recombinant protein incubated with kinases)	SDS-PAGE mobility shift upon phosphorylation by PKC ([2]; PKC)	substrate for PKC and Src ([2]; PKC or Src, immunoblot)	phosphorylation of serine and threonine sites ([2]; Western blot, by PKA, PKC, MAPK, cdc2 and Akt1)	excitation spectrum upon phosphorylation ([3]; different protein kinases, including Akt1)	emission spectrum upon phosphorylation ([3]; incubated with PKA, PKC or Akt1)	increase in fluorescence intensity over time with alkaline phosphatase (alkaline phosphatase)	oligomeric state [4]	brightness relative to eGFP ([4]; as bright as eGFP)	peak emission intensity greater than that of eGFP [5]
B1	> 100	increased above background levels	increased to a lesser degree	dramatic increase in fluorescence intensity	multiple higher molecular weight species	avid substrate	phosphorylated	dramatically altered	marked shift	virtually abolished the increase in fluorescence intensity	–	–	–
B2	–	–	–	–	–	–	–	–	–	–	monomeric	about 1.4 times	about 50%
